5 molecules from patent US20240261333A1, “NOVEL TARGETS FOR ENHANCING ANTI-TUMOR IMMUNITY” (THE BROAD INSTITUTE, INC., priority 2021, published 2024) can be followed below.

In the test the target is T1, B3GNT2 (Homo sapiens, UniProt Q9NY97).
T1 construct: The respective ORFs of candidate genes [CD274 (NM_014143), MCL1 (NM_021960), JUNB (NM_002229), and B3GNT2 (NM_006577)] were synthesized; expressed in transfected cells; host or cells: A375 melanoma cells (lentiviral ORF overexpression)
T1 sequence (Q9NY97 1-397): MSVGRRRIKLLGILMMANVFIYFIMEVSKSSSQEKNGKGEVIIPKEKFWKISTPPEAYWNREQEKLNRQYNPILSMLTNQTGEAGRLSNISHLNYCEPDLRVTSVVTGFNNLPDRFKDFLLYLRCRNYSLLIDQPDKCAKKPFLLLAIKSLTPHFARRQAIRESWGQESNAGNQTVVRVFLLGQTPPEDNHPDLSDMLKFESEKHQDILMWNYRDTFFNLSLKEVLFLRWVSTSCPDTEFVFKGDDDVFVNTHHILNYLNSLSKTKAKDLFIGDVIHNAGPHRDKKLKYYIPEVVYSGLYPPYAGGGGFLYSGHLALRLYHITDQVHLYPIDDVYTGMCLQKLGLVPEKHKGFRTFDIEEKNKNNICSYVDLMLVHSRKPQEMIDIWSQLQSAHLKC
The experiment in a line: Co-IP of FLAG-tagged B3GNT2 followed by mass spectrometry. It counts as cell-based. On the set-up: C-term IgG / C-term flag: unit not given here. The settings on record: mass spectrometry count, unit not given; for C-term flag / N-term FLAG: Co-IP with FLAG antibody; for C-term flag / C-term IgG: C-terminally FLAG-tagged B3GNT2; for N-term FLAG / N-term IgG: N-terminally FLAG-tagged B3GNT2; for C-term IgG / N-term IgG: Co-IP with IgG control antibody. In a few lines:
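FLAG-tagged B3GNT2 immunoprecipitated from cell lysate (HEPES, 1% Triton X-100, 150 mM NaCl) with anti-FLAG versus […], overnight at 4° C, then captured on Protein A/G magnetic beads for 4 h. Two biological replicates per condition. Peptides fractionated and analyzed by nano-LC on an Orbitrap Elite in data-dependent mode.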

B1: PSMB6 (protein)
chain: TTIMAVQFDGGVVLGADSRTTTGSYIANRVTDKLTPIHDRIFCCRSGSAADTQAVADAVTYQLGFHSIELNEPPLVHTAASLFKEMCYRYREDLMAGIIIAGWDPQEGGQVYSVPMGGMMVRQSFAIGGSGSSYIYGYVDATYREGMTKEECLQFTANALALAMERDGSSGGVIRLAAIAESGVERQVLLGDQIPKFAVATLPPA
With B1, the C-term flag worked out at 3, the “N-term FLAG” value came out at 5, the “C-term IgG” value worked out at 0 and the “N-term IgG” value is reported as 0.

B2: RRBP1 (protein)
chain: MDIYDTQTLGVVVFGGFMVVSAIGIFLVSTFSMKETSYEEALANQRKEMAKTHHQKVEKKKKEKTVEKKGKTKKKEEKPNGKIPDHDPAPNVTVLLREPVRAPAVAVAPTPVQPPIIVAPVATVPAMPQEKLASSPKDKKKKEKKVAKVEPAVSSVVNSIQVLTSKAAILETAPKEVPMVVVPPVGAKGNTPATGTTQGKKAEGTQNQSKKAEGAPNQGRKAEGTPNQGKKTEGTPNQGKKAEGTPNQGKKAEGTPNQGKKAEGAQNQGKKVDTTPNQGKKVEGAPTQGRKAEGAQNQAKKVEGAQNQGKKAEGAQNQGKKGEGAQNQGKKAEGAQNQGKKAEGAQNQGKKAEGAQNQGKKAEGAQNQGKKAEGAQNQGKKAEGAQNQGKKVEGAQNQGKKAEGAQNQGKKAEGAQNQGKKAEGAQNQGKKAEGAQNQGKKAEGAQNQGKKAEGAQNQGKKAEGAQNQGKKVEGAQNQGKKAEGAQNQGKKAEGAQNQGKKAEGAQNQGQKGEGAQNQGKKTEGAQGKKAERSPNQGKKGEGAPIQGKKADSVANQGTKVEGITNQGKKAEGSPSEGKKAEGSPNQGKKADAAANQGKKTESASVQGRNTDVAQSPEAPKQEAPAKKKSGSKKKGEPGPPDADGPLYLPYKTLVSTVGSMVFNEGEAQRLIEILSEKAGIIQDTWHKATQKGDPVAILKRQLEEKEKLLATEQEDAAVAKSKLRELNKEMAAEKAKAAAGEAKVKKQLVAREQEITAVQARMQASYREHVKEVQQLQGKIRTLQEQLENGPNTQLARLQQENSILRDALNQATSQVESKQNAELAKLRQELSKVSKELVEKSEAVRQDEQQRKALEAKAAAFEKQVLQLQASHRESEEALQKRLDEVSRELCHTQSSHASLRADAEKAQEQQQQMAELHSKLQSSEAEVRSKCEELSGLHGQLQEARAENSQLTERIRSIEALLEAGQARDAQDVQASQAEADQQQTRLKELESQVSGLEKEAIELREAVEQQKVKNNDLREKNWKAMEALATAEQACKEKLLSLTQAKEESEKQLCLIEAQTMEALLALLPELSVLAQQNYTEWLQDLKEKGPTLLKHPPAPAEPSSDLASKLREAEETQSTLQAECDQYRSILAETEGMLRDLQKSVEEEEQVWRAKVGAAEEELQKSRVTVKHLEEIVEKLKGELESSDQVREHTSHLEAELEKHMAAASAECQNYAKEVAGLRQLLLESQSQLDAAKSEAQKQSDELALVRQQLSEMKSHVEDGDIAGAPASSPEAPPAEQDPVQLKTQLEWTEAILEDEQTQRQKLTAEFEEAQTSACRLQEELEKLRTAGPLESSETEEASQLKERLEKEKKLTSDLGRAATRLQELLKTTQEQLAREKDTVKKLQEQLEKAEDGSSSKEGTSV
Consider B2, for which the C-term flag amounted to 16, the “N-term FLAG” value turned out to be 2, the “C-term IgG” value was 2 and the “N-term IgG” value was 0.

B3: TRAFD1 (protein)
chain: AEFLDDQETRLCDNCKKEIPVFNFTIHEIHCQRNIGMCPTCKEPFPKSDMETHMAAEHCQVTCKCNKKLEKRLLKKHEETECPLRLAVCQHCDLELSILKLKEHEDYCGARTELCGNCGRNVLVKDLKTHPEVCGREGEEKRNEVAIPPNAYDESWGQDGIWIASQLLRQIEALDPPMRLPRRPLRAFESDVFHNRTTNQRNITAQVSIQNNLFEEQERQERNRGQQPPKEGGEESANLDFMLALSLQNEGQASSVAEQDFWRAVCEADQSHGGPRSLSDIKGAADEIMLPCEFCEELYPEELLIDHQTSCNPSRALPSLNTGSSSPRGVEEPDVIFQNFLQQAASNQLDSLMGLSNSHPVEESIIIPCEFCGVQLEEEVLFHHQDQCDQRPATATNHVTEGIPRLDSQPQETSPELPRRRVRHQGDLSSGYLDDTKQETANGPTSCLPPSRPINNMTATYNQLSRSTSGPRPGCQPSSPCVPKLSNSDSQDIQGRNRDSQNGAIAPGHVSVIRPPQNLYPENIVPSFSPGPSGRYGASGRSEGGRNSRVTPAAANYRSRTAKAKPSKQQGAGDAEEEEEE
On to B3, for which the C-term flag turned out to be 2, the “N-term FLAG” value was found to be 0, the “C-term IgG” value is on record as 0 and the “N-term IgG” value was 0.

B4: ERP44 (protein)
chain: EITSLDTENIDEILNNADVALVNFYADWCRFSQMLHPIFEEASDVIKEEFPNENQVVFARVDCDQHSDIAQRYRISKYPTLKLFRNGMMMKREYRGQRSVKALADYIRQQKSDPIQEIRDLAEITTLDRSKRNIIGYFEQKDSDNYRVFERVANILHDDCAFLSAFGDVSKPERYSGDNIIYKPPGHSAPDMVYLGAMTNFDVTYNWIQDKCVPLVREITFENGEELTEEGLPFLILFHMKEDTESLEIFQNEVARQLISEKGTINFLHADCDKFRHPLLHIQKTPADCPVIAIDSFRHMYVFGDFKDVLIPGKLKQFVFDLHSGKLHREFHHGPDPTDTAPGEQAQDVASSPPESSFQKLAPSEYRYTLLRDRDEL
On to B4, for which the C-term flag is given as 2, the “N-term FLAG” value is given as 0, the “C-term IgG” value came to 0 and the “N-term IgG” value is on record as 0.

B5: KTN1 (protein)
chain: MEFYESAYFIVLIPSIVITVIFLFFWLFMKETLYDEVLAKQKREQKLIPTKTDKKKAEKKKNKKKEIQNGNLHESDSESVPRDFKLSDALAVEDDQVAPVPLNVVETSSSVRERKKKEKKQKPVLEEQVIKESDASKIPGKKVEPVPVTKQPTPPSEAAASKKKPGQKKSKNGSDDQDKKVETLMVPSKRQEALPLHQETKQESGSGKKKASSKKQKTENVFVDEPLIHATTYIPLMDNADSSPVVDKREVIDLLKPDQVEGIQKSGTKKLKTETDKENAEVKFKDFLLSLKTMMFSEDEALCVVDLLKEKSGVIQDALKKSSKGELTTLIHQLQEKDKLLAAVKEDAAATKDRCKQLTQEMMTEKERSNVVITRMKDRIGTLEKEHNVFQNKIHVSYQETQQMQMKFQQVREQMEAEIAHLKQENGILRDAVSNTTNQLESKQSAELNKLRQDYARLVNELTEKTGKLQQEEVQKKNAEQAATQLKVQLQEAERRWEEVQSYIRKRTAEHEAAQQDLQSKFVAKENEVQSLHSKLTDTLVSKQQLEQRLMQLMESEQKRVNKEESLQMQVQDILEQNEALKAQIQQFHSQIAAQTSASVLAEELHKVIAEKDKQIKQTEDSLASERDRLTSKEEELKDIQNMNFLLKAEVQKLQALANEQAAAAHELEKMQQSVYVKDDKIRLLEEQLQHEISNKMEEFKILNDQNKALKSEVQKLQTLVSEQPNKDVVEQMEKCIQEKDEKLKTVEELLETGLIQVATKEEELNAIRTENSSLTKEVQDLKAKQNDQVSFASLVEELKKVIHEKDGKIKSVEELLEAELLKVANKEKTVQDLKQEIKALKEEIGNVQLEKAQQLSITSKVQELQNLLKGKEEQMNTMKAVLEEKEKDLANTGKWLQDLQEENESLKAHVQEVAQHNLKEASSASQFEELEIVLKEKENELKRLEAMLKERESDLSSKTQLLQDVQDENKLFKSQIEQLKQQNYQQASSFPPHEELLKVISEREKEISGLWNELDSLKDAVEHQRKKNNDLREKNWEAMEALASTEKMLQDKVNKTSKERQQQVEAVELEAKEVLKKLFPKVSVPSNLSYGEWLHGFEKKAKECMAGTSGSEEVKVLEHKLKEADEMHTLLQLECEKYKSVLAETEGILQKLQRSVEQEENKWKVKVDESHKTIKQMQSSFTSSEQELERLRSENKDIENLRREREHLEMELEKAEMERSTYVTEVRELKDLLTELQKKLDDSYSEAVRQNEELNLLKAQLNETLTKLRTEQNERQKVAGDLHKAQQSLELIQSKIVKAAGDTTVIENSDVSPETESSEKETMSVSLNQTVTQLQQLLQAVNQQLTKEKEHYQVLE
As for B5, the C-term flag is given as 2, the “N-term FLAG” value was 0, the “C-term IgG” value amounted to 0 and the “N-term IgG” value amounted to 0.
